Experiments:
ErbB2 [1] = target: ErbB2 (UniProt P04626); assay: two-colour single molecule co-localisation and tracking (TOCCSL, TIR microscopy); live CHO-ErbB2-ErbB3 cells; AF488-ErbB3-Fab and AF647-ErbB3-Fab for homodimers, AF488-ErbB2-Fab and AF647-ErbB3-Fab for heterodimers; with 200 ng/mL (25 nM) HRG, no pertuzumab; room temperature; conditions: other: two-colour single molecule co-localisation and tracking (TOCCSL, TIR microscopy)
ErbB2 [2] = target: ErbB2 (UniProt P04626); assay: two-colour single molecule co-localisation and tracking (TOCCSL, TIR microscopy); live CHO-ErbB2-ErbB3 cells; AF488-ErbB3-Fab and AF647-ErbB3-Fab for homodimers, AF488-ErbB2-Fab and AF647-ErbB3-Fab for heterodimers; no HRG, no pertuzumab; room temperature; conditions: other: two-colour single molecule co-localisation and tracking (TOCCSL, TIR microscopy)

ErbB3, sequence (chain): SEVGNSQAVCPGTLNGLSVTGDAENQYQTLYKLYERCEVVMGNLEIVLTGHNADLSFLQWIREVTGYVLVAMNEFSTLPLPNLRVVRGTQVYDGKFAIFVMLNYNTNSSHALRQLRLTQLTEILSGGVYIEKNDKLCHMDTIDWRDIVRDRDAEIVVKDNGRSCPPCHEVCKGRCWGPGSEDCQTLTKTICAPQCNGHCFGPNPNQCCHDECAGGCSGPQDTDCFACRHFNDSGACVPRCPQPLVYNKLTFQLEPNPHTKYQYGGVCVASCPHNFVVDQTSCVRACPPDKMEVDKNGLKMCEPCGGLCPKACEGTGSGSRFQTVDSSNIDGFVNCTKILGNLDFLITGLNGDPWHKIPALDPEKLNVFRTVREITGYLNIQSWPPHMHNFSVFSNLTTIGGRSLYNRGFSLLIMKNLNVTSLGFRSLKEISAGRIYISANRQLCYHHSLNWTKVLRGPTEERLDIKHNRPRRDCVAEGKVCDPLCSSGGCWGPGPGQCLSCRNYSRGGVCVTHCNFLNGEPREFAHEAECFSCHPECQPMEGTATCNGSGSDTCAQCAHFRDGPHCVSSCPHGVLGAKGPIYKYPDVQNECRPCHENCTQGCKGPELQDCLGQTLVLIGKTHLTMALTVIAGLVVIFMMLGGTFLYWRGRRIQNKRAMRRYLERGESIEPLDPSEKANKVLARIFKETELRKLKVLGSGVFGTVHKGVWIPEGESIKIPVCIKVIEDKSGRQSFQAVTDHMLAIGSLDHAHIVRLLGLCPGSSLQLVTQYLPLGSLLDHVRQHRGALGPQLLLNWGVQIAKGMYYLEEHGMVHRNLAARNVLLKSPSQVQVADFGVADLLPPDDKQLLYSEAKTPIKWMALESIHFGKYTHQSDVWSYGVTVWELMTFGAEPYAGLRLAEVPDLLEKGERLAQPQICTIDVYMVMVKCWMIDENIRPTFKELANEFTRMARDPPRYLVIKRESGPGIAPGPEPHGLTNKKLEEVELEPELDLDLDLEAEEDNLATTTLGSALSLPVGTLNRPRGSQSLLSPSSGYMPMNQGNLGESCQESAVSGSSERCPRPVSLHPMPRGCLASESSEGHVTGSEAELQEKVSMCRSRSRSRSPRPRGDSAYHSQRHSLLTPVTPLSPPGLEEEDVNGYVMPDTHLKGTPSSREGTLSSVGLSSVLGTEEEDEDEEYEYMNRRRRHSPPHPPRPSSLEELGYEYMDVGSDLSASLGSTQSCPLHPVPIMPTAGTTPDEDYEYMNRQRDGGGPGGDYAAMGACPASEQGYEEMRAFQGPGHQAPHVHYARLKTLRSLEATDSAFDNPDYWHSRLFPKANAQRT

Q: For ErbB3, which “percent of ErbB3 in ErbB3/ErbB2 heterodimers” value (ErbB2 [1]) is on record?
A: The value was “a further increase of ErbB3/ErbB2 heterodimerization (∼90%”.

Q: And the “percent of ErbB3 in ErbB3/ErbB2 heterodimers” value (ErbB2 [2])?
A: The value was “∼70% of ErbB3 being associated to ErbB3/ErbB2 heterodimers”.

— PMC7018998
